Target: T1, recombinant E. coli human IL4 (non-glycosylated) (human, UniProt P05112 25-153)
T1 sequence (looked up): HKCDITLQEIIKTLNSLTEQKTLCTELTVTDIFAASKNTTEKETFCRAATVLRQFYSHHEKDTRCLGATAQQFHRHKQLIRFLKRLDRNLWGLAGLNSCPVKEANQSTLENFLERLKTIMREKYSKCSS
Experiment: cell-based or functional assay

B cell proliferation (3H thymidine), IC50: 0.047 nM
B1: humanized 3B9 (IgG1) (antibody, V domains shown)
VH: QVTLRESGPALVKPTQTLTLTCTFSGFSLSTSGMGVSWIRQPPGKGLEWLAHIYWDDDKRYNPSLKSRLTISKDTSRNQVVLTMTNMDPVDTATYYCARRETVFYWYFDVWGRGTPVTVSS
VL: IVMTQSPDSLAVSLGERATINCKASQSVDYDGDSYMNWYQQKPGQPPKLLIYAASNLESGVPDRFSGSGSGTDFTLTISSLQAEDVAVYYCQQSNEDPPRFGGGTKVEIKR
